Measurements reported in patent CN115677856A (DONGGUAN PENGZHI BIOTECHNOLOGY CO LTD, dated 2023).

Biological target: 人IgM (human, UniProt P01871 1-453)
Experiment: AMC sensor kinetics, antibody captured on the sensor, human IgM in graded dilutions in solution

Sequence of 人IgM (P01871 other isoform, or with tags, fused parts or gaps): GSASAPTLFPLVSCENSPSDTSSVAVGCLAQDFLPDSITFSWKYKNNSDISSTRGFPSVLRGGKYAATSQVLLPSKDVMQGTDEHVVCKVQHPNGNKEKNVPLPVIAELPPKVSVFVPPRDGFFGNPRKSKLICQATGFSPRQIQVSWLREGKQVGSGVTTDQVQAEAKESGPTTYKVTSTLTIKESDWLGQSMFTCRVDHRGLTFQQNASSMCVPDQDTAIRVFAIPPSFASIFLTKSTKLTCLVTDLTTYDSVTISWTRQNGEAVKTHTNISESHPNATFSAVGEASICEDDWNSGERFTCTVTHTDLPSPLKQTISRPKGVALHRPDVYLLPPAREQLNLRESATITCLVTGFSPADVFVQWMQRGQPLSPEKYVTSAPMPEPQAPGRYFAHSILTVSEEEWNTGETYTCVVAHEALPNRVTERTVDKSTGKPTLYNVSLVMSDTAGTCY

Kd	koff	kon	Binder
3.02 pM	2.84e-05 s⁻¹	9.41e+06 M⁻¹ s⁻¹	Ig-M-9G1RMb1抗体 (antibody, mouse IgG1, kappa, V domains shown, It was detected with goat anti-mouse IgG-HRP and captured on AMC sensors; also called 抗人IgM抗体) VH: EVQLQQSGAELVKPGASVKLSCTTSGFSIKDAYIHWVKQRPKQGLEWIGRIDPANGYTKYDPKFQGKATITADKSSSTAYMQLRSLTSEDSAVYYCAREPLPHYYAMDYWGQGTSVTVSS VL: DIQMTQSPSSLSASLGERVSLTCRASQEISGFLSWLQQKPDGTIKRLIYAASTLDSGVPKRFSGSTSGSDYRLKISSLESEDFADYYCIQYTSFPLTFGAGTKLELKR
4.27 pM	6.07e-05 s⁻¹	1.42e+07 M⁻¹ s⁻¹	Ig-M-9G1RMb2抗体 (antibody, V domains shown) VH: EVQLQQSGAELVKPGASVKLSCTTSGFSIKDAYIHWVKQRPKQGLEWIGRIDPANGYTKYDPKFQGKATITADKSSSTAYMQLRSLTSEDSAVYYCAREPLPHYYAMDYWGQGTSVTVSS VL: DIQMTQSPSSLSASLGERVSLTCRASQEISGFLSWLQQKPDGTIKRLIYAASTLDSGVPKRFSGSTSGSDYRLKISSLESEDFADYYCLQYTSFPLTFGAGTKLELKR
